Experimental findings from IntAct's records for PubMed 12626503 are described below.

B1: Rho guanine nucleotide exchange factor 7 (Mus musculus), Q9ES28-2 (parent)
chain: MNSAEQTVTWLITLGVLESPKKTISDPEVFLQASLKDGVVLCRLLERLLPGTIEKVYPEPRNESECLSNIREFLRACGASLRLETFDANDLYQGQNFNKVLSSLVTLNKVTADIGLGSDSVCARPSSHRIKSFDSLGSQSSHSRTSKLLQSQYRSLDMTDNTNSQLVVRAKFNFQQTNEDELSFSKGDVIHVTRVEEGGWWEGTHNGRTGWFPSNYVREIKPSEKPVSPKSGTLKSPPKGFDTTAINKSYYNVVLQNILETEHEYSKELQSVLSTYLRPLQTSDKLSSANTSYLMGNLEEISSFQQVLVQSLEECTKSPEAQQRVGGCFLSLMPQMRTLYLAYCANHPSAVSVLTEHSEDLGEFMETKGASSPGILVLTTGLSKPFMRLDKYPTLLKELERHMEDYHPDRQDIQKSMTAFKNLSAQCQEVRKRKELELQILTEPIRSWEGDDIKTLGSVTYMSQVTIQCAGSEEKNERYLLLFPNLLLMLSASPRMSGFIYQGKLPTTGMTITKLEDSENHRNAFEISGSMIERILVSCTSQQDLHEWVEHLQKQTKVTSVSNPTIKPHSVPSHTLPSHPLTPSSKHADSKPVALTPAYHTLPHPSHHGTPHTTISWGPLEPPKTPKPWSLSCLRPAPPLRPSAALCYKEDLSKSPKTMKKLLPKRKPERKPSDEEFAVRKSTAALEEDAQILKVIEAYCTSAKTRQTLNSSSRKESAPQVLLPEEEKIIVEETKSNGQTVIEEKSLVDTVYALKDEVQELRQDNKKMKKSLEEEQRARKDLEKLVRKVLKNMNDPAWDETNL
B2: Rho guanine nucleotide exchange factor 7 (Mus musculus), Q9ES28-2 (parent)
chain: B1 chain
partner: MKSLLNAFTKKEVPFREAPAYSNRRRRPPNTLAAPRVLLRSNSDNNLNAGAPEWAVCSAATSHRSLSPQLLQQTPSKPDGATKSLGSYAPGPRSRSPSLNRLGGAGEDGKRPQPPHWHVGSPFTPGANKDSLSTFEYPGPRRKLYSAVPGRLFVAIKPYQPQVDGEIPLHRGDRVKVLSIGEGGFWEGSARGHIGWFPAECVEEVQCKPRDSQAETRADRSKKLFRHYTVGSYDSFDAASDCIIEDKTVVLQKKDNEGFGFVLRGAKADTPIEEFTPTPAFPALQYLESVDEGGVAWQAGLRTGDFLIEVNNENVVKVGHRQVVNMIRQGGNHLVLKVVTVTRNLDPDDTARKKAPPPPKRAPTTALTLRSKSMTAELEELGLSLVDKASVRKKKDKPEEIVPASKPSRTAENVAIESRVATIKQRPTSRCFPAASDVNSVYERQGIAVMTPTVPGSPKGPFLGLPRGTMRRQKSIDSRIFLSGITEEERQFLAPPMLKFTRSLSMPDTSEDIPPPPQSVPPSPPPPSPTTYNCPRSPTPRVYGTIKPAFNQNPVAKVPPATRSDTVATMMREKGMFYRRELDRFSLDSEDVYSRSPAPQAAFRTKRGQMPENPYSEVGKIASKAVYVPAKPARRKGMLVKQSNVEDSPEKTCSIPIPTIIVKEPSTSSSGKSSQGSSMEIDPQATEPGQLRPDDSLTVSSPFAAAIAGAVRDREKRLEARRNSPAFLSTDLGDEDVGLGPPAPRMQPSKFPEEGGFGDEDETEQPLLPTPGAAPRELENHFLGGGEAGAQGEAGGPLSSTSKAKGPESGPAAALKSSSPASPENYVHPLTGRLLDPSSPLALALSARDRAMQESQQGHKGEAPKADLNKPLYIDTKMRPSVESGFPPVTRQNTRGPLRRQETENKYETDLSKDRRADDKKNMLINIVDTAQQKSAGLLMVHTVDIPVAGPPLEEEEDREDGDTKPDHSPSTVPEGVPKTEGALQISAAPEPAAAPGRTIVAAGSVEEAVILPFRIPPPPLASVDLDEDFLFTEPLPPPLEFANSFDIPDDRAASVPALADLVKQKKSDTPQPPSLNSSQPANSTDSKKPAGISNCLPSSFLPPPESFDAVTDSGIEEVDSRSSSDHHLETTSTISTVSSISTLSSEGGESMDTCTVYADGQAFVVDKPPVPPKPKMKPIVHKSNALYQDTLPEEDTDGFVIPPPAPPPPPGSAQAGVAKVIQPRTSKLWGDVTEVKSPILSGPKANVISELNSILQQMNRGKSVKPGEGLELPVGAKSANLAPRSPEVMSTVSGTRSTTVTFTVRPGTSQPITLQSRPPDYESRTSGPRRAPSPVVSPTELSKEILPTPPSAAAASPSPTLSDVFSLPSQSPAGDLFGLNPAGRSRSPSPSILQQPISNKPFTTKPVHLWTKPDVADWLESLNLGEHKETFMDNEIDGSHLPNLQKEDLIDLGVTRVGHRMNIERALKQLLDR

The first test covers variants of B1. Particulars: with shan1_rat Shank1, Q9WV48.
Chain of shan1_rat Shank1, Q9WV48 (Q9WV48 whole entry): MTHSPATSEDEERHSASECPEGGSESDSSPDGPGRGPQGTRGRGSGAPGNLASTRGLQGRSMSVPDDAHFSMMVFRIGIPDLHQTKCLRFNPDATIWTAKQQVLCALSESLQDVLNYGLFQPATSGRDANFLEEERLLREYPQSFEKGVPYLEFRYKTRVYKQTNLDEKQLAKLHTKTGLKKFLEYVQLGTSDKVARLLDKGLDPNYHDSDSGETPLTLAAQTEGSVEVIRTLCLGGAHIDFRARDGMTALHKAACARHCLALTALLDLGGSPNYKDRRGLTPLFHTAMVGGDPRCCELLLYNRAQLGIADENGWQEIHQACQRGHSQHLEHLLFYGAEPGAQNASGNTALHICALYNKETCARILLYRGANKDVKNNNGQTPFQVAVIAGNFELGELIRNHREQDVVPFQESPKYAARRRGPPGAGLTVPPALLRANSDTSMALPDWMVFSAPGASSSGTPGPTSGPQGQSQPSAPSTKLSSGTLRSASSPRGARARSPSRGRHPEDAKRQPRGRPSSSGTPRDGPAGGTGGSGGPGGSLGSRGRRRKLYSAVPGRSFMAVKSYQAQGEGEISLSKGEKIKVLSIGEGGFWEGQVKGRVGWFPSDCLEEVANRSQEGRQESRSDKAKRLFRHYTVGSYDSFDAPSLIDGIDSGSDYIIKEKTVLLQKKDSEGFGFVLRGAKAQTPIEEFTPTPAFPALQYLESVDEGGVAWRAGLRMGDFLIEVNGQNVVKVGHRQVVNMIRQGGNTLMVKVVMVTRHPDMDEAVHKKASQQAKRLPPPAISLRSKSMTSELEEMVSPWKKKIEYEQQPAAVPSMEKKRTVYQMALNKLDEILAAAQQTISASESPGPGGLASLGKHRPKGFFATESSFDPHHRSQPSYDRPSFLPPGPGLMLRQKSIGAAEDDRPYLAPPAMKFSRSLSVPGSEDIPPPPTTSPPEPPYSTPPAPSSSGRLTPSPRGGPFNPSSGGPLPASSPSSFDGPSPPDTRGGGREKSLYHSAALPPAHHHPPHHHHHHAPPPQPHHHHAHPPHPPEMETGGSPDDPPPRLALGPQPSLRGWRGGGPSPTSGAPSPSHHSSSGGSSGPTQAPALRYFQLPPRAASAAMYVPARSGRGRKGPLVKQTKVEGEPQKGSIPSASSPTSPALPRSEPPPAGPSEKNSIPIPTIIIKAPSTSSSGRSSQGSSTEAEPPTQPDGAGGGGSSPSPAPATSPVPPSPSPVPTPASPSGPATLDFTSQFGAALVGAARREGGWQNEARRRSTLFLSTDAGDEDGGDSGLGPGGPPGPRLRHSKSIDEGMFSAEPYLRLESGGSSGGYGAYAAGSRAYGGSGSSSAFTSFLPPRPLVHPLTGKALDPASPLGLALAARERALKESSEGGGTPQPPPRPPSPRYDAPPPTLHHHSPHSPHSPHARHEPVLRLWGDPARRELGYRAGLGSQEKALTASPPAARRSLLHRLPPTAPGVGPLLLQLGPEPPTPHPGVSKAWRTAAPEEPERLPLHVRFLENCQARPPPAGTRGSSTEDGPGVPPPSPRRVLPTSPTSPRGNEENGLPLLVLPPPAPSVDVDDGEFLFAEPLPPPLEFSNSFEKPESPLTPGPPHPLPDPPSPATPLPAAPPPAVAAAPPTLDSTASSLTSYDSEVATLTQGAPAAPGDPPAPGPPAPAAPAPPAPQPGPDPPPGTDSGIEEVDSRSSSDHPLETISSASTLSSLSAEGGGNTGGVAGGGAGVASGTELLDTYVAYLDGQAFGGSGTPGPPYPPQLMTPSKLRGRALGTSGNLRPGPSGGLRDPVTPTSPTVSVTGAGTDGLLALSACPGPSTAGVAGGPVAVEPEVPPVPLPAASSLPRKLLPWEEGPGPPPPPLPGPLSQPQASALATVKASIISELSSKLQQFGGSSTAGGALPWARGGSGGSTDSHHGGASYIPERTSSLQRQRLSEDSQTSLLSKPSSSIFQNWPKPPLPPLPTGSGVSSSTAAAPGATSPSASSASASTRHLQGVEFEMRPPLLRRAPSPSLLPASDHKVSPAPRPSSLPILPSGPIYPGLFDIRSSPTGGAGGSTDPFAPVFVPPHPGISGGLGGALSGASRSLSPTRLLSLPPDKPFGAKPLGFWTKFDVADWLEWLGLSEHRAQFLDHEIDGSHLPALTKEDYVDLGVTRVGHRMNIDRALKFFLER
Take L646A: the “effect of a mutation on the interaction” value is on record as “disrupting interaction”.

In a further test the parent is B2. The note with it: with shan2_rat Shank2, Q9QX74.
Turning to L646A, the “effect of a mutation on the interaction” value is “disrupting interaction”.
